{"source": "patent US6897049B1", "about": "“Proteins producing an altered immunogenic response and methods of making and using the same” (Genencor International, Inc., priority 1998, dated 2005)", "key": {"Hartley guinea pigs": {"tested_on": "Hartley guinea pigs", "assay": "Guinea pig model of immunogenicity, antigen-specific IgG titers by direct ELISA", "format": "in vivo", "description": "Guinea pig immunizations: Adult female Hartley guinea pigs were immunized with various doses of B. amyloliquefaciens subtilisin and GP002. The doses were 1, 5, 10, and 20 μg/dose. There were four animals for each dose. Animals were immunized subcutaneously with enzyme in Complete Freund's Adjuvant for the first immunization. All subsequent immunizations were performed in Incomplete Freund's adjuvant. Animals were immunized, and a serum sample taken, every two weeks.\nELISA: A direct ELISA was performed. Costart EIA plates were coated with 10 μg/ml of the immunizing enzyme in PBS overnight at 4° C. Plates were washed and blocked with 1% BSA in PBS. Serum samples were diluted in 1% BSA/PBS, and incubated on the enzymes coated plates for 1 hour. Serum samples were washed out, and biotinylated anti-guinea pig IgG was added at a 1:10,000 dilution in 1% BSA/PBS. The secondary reagent was incubated for 1 hour. The wells were washed, and avidin conjugated horse radish peroxidase was added to the wells at a 1:1000 dilution in 1% BSA/PBS. After 30 minutes, the substrate (ABTS) was added and the OD405 was read after 30 minutes.\nCalculation of titers: Background was subtracted from the OD readings, and the results plotted for each individual guinea pig. […] The titer value was calculated from the linear regression equation for an OD=0.5. […]"}, "guinea pig splenocytes": {"tested_on": "guinea pig splenocytes", "assay": "T cell epitope mapping with splenocytes of immunized guinea pigs (thymidine incorporation)", "format": "cell-based", "details": "guinea pigs immunized with 20 μg subtilisin; 15-mer peptides at 5 μM; >10 animals", "description": "B. lentis and B. amyloliquefaciens subtilisin T cell epitope mapping: Guinea pigs were immunized with 20 μg/immunization of subtilisin from either B. lentis or B. amyloliquefaciens. Animals were immunized subcutaneously in adjuvant every two weeks for 10 to 12 weeks. A single cell suspension of guinea pig splenocytes was created from each animal's spleen. Cells were plated at 5×10^5 splenocytes per well in round bottom 96 well plates. 15-mer peptides off-set by 3 amino acids were synthesized by Mimotopes. Peptides were resuspended to 1 mM in DMSO. Peptides were added to the cells at a final concentration of 5 μM. Cultures were incubated for 5 days at 37°, 5% CO2. Wells were pulsed with 0.5 μCi tritiated thymidine, and allowed to incubate for an additional 18 hours. Wells were harvested, and thymidine incorporation assessed."}, "naïve human CD4+ T-cells": {"tested_on": "naïve human CD4+ T-cells", "assay": "T-cell proliferation assay with differentiated dendritic cells and naïve human CD4+ T-cells (tritium incorporation)", "format": "cell-based", "details": "using the methods herein", "description": "Fresh human peripheral blood cells were collected from “naïve” humans, i.e., persons not known to be exposed to or sensitized to Bacillus lentus protease, for determination of antigenic epitopes in protease from Bacillus lentus and human subtilisin. Naïve humans is intended to mean that the individual is not known to have been exposed to or developed a reaction to protease in the past. Peripheral mononuclear blood cells (stored at room temperature, no older than 24 hours) were prepared for use as follows: Approximately 30 mls of a solution of buffy coat preparation from one unit of whole blood was brought to 50 ml with Dulbecco's phosphate buffered solution (DPBS) and split into two tubes. […] The cell density of the resultant solution was measured by hemocytometer. Viability was measured by trypan blue exclusion.\nFrom the resulting solution, a differentiated dendritic cell culture was prepared from the peripheral blood mononuclear cell sample having a density of 10^8 cells per 75 ml culture flask in a solution as follows: • (1) 50 ml of serum free AIM V media (Gibco) was supplemented with a 1:100 dilution beta-mercaptoethanol (Gibco). […] Adherent and non-adherent cells were then centrifuged at 600 G for 5 minutes, washed in DPBS and counted. • (4) The prepared dendritic cells were placed into a 96 well round bottom array at 2×10^4/well in 100 microliter total volume of AIM V media. […]"}, "[1]": {"tested_on": "HLA DR3/DQ2 transgenic mice", "assay": "Immunization of HLA-DR3/DQ2/C2D transgenic mice, antigen-specific IgG by direct ELISA", "format": "in vivo", "details": "2 x 50 μg i.p.", "description": "Adult male HLA-DR31DQ2/C2D mice were immunized with 50 μg of FNA or FNA Variant emulsified in Complete Freund's Adjuvant. The immunization was administered intraperitoneally. Two weeks later, the mice received another intraperitoneal immunization of 50 μg FNA or the Variant emulsified in Incomplete Freund's Adjuvant. One week later, the mice were bled via the retro-orbital route, and the serum collected. Serum was assessed for antigen-specific IgG antibodies in a direct ELISA protocol. Briefly, 96 well flat-bottomed EIA plates were coated overnight with 10 μg/ml of denatured FNA. Plates were washed, blocked with 1% Fetal Calf Serum, and serum was titered out at 1:10 dilutions. The serum was washed out of the wells, and antigen-specific IgG was detected with horse radish peroxidase conjugated anti-mouse IgG. Results are presented as serum dilution versus average optical density (×1000) in Table 1 and FIG. 21."}}, "data": [{"molecule": "B. lentis subtilisin: subtilisin protease from Bacillus lentus (GG36), SEQ ID NO: 6 (protein) AQSVPWGISRVQAPAAHNRGLTGSGVKVAVLDTGISTHPDLNIRGGASFVPGEPSTQDGNGHGTHVAGTIAALNNSIGVLGVAPSAELYAVKVLGASGSGSVSSIAQGLEWAGNNGMHVANLSLGSPSPSATLEQAVNSATSRGVLVVAASGNSGAGSISYPARYANAMAVGATDQNNNRASFSQYGAGLDIVAPGVNVQSTYPGSTYASLNGTSMATPHVAGAAALVKQKNPSWSNVQIRNHLKNTATSLGSTNLYGSGLVNAEAATR", "values": [{"measurement": "immunogenicity in Hartley strain guinea pigs", "setting": "Hartley guinea pigs", "value": "highly immunogenic"}, {"measurement": "T cell epitopes found", "setting": "guinea pig splenocytes", "value": "Two"}]}, {"molecule": "proteinase K: Proteinase K from Tritirachium Album limber (protein, UniProt P06873 106-384, looked up) Proteinase K: AAQTNAPWGLARISSTSPGTSTYYYDESAGQGSCVYVIDTGIEASHPEFEGRAQMVKTYYYSSRDGNGHGTHCAGTVGSRTYGVAKKTQLFGVKVLDDNGSGQYSTIIAGMDFVASDKNNRNCPKGVVASLSLGGGYSSSVNSAAARLQSSGVMVAVAAGNNNADARNYSPASEPSVCTVGASDRYDRRSSFSNYGSVLDIFGPGTSILSTWIGGSTRSISGTSMATPHVAGLAAYLMTLGKTTAASACRYIADTANKGDLSNIPFGTVNLLAYNNYQA", "values": [{"measurement": "immunogenic response compared with other commercially available proteases", "setting": "naïve human CD4+ T-cells", "value": "lower immunogenic response"}]}, {"molecule": "Bacillus amyloliquefaciens subtilisin: Bacillus amyloliquefaciens subtilisin (BPN′), SEQ ID NO: 3 (protein) AQSVPYGVSQIKAPALHSQGYTGSNVKVAVIDSGIDSSHPDLKVAGGASMVPSETNPFQDNNSHGTHVAGTVAALNNSIGVLGVAPSASLYAVKVLGADGSGQYSWIINGIEWAIANNMDVINMSLGGPSGSAALKAAVDKAVASGVVVVAAAGNEGTSGSSSTVGYPGKYPSVIAVGAVDSSNQRASFSSVGPELDVMAPGVSIQSTLPGNKYGAYNGTSMASPHVAGAAALILSKHPNWTNTQVRSSLENTTTKLGDSFYYGKGLINVQAAAQ", "values": [{"measurement": "immunogenicity in Hartley strain guinea pigs", "setting": "Hartley guinea pigs", "value": "comparatively non-immunogenic"}, {"measurement": "T cell epitopes found", "setting": "guinea pig splenocytes", "value": "none"}]}, {"molecule": "FNA: BPN′ with a Y217L substitution; precursor of the variant (protein, UniProt P00782 108-382, looked up, variant Y217L) Subtilisin BPN': AQSVPYGVSQIKAPALHSQGYTGSNVKVAVIDSGIDSSHPDLKVAGGASMVPSETNPFQDNNSHGTHVAGTVAALNNSIGVLGVAPSASLYAVKVLGADGSGQYSWIINGIEWAIANNMDVINMSLGGPSGSAALKAAVDKAVASGVVVVAAAGNEGTSGSSSTVGYPGKYPSVIAVGAVDSSNQRASFSSVGPELDVMAPGVSIQSTLPGNKYGALNGTSMASPHVAGAAALILSKHPNWTNTQVRSSLENTTTKLGDSFYYGKGLINVQAAAQ", "values": [{"measurement": "average optical density (×1000), antigen-specific IgG", "setting": "[1]; serum dilution 10", "value": 2937.5}, {"measurement": "average optical density (×1000), antigen-specific IgG", "setting": "[1]; serum dilution 100", "value": 2476}, {"measurement": "average optical density (×1000), antigen-specific IgG", "setting": "[1]; serum dilution 1000", "value": 1695}, {"measurement": "average optical density (×1000), antigen-specific IgG", "setting": "[1]; serum dilution 10000", "value": 641.5}, {"measurement": "average optical density (×1000), antigen-specific IgG", "setting": "[1]; serum dilution 100000", "value": 207}, {"measurement": "average optical density (×1000), antigen-specific IgG", "setting": "[1]; serum dilution 1000000", "value": 129.5}, {"measurement": "average optical density (×1000), antigen-specific IgG", "setting": "[1]; serum dilution 10000000", "value": 88.5}]}]}
